Results reported in patent US9593305B2, “Differentiation of pluripotent stem cells” (Janssen Biotech, Inc., priority 2008, dated 2017).

B1: BMP3: growth factor protein, R&D Systems (protein, UniProt P12645 363-472, looked up)
Bone morphogenetic protein 3: QWIEPRNCARRYLKVDFADIGWSEWIISPKSFDAYYCSGACQFPMPKSLKPSNHATIQSIVRAVGVVPGIPEPCCVPEKMSSLSILFFDENKNVVLKVYPNMTVESCACR
B2: GDF11: member of the GDF family of proteins (PeproTech) (protein, UniProt O95390 299-407, looked up)
Growth/differentiation factor …: NLGLDCDEHSSESRCCRYPLTVDFEAFGWDWIIAPKRYKANYCSGQCEYMFMQKYPHTHLVQQANPRGSAGPCCTPTKMSPINMLYFNDKQQIIYGKIPGMVVDRCGCS
B3: GDF15: member of the GDF family of proteins (R&D Systems) (protein, UniProt Q99988 195-308, looked up)
Growth/differentiation factor …: ARARNGDHCPLGPGRCCRLHTVRASLEDLGWADWVLSPREVQVTMCIGACPSQFRAANMHAQIKTSLHRLKPDTVPAPCCVPASYNPMVLIQKTDTGVSLQTYDDLLAKDCHCI
B4: GDF10: member of the GDF family of proteins (R&D Systems) (protein, UniProt P55107 369-478, looked up)
Growth/differentiation factor …: QWDEPRVCSRRYLKVDFADIGWNEWIISPKSFDAYYCAGACEFPMPKIVRPSNHATIQSIVRAVGIIPGIPEPCCVPDKMNSLGVLFLDENRNVVLKVYPNMSVDTCACR

Key:
[1] = tested on: H1 human embryonic stem cells; experiment: Definitive endoderm formation with TGF superfamily members, SOX17 and cell number (Example 14); assay type: cell-based; settings: dose titration with Wnt3a, Compound 34, or both
Experimental: Clusters were centrifuged at low speed to collect a cell pellet and remove residual dispase. […] All human embryonic stem cell lines were maintained at passage numbers less than 50 and routinely evaluated for normal karyotype and absence of mycoplasma.
Cells were washed again three times with PBS and blocked with 4% chicken serum (Invitrogen; Cat #16110082) in PBS for 30 minutes at room temperature. […] Plates were washed once with PBS and left in 100 μl/well PBS for imaging.

[2] = tested on: H1 human embryonic stem cells; experiment: Definitive endoderm formation with GDF family members, SOX17 and cell number (Example 13); assay type: cell-based; settings: 100 ng/ml GDF, alone or with Wnt3a, Compound 34 or Compound 56, four days
Experimental: Stock cultures of human embryonic stem cells (H1 human embryonic stem cell line) were maintained in an undifferentiated, pluripotent state on reduced growth factor […]™ (BD Biosciences; Cat #356231)-coated dishes in MEF conditioned medium with passage on average every four days. Passage was performed by exposing cell cultures to a solution of 1 mg/ml dispase (Invitrogen; Cat #17105-041) for 5 to 7 minutes at 37° C. followed by rinsing the monolayer with MEF conditioned culture medium and gentle scraping to recover cell clusters. Clusters were centrifuged at low speed to collect a cell pellet and remove residual dispase. Cell clusters were split at a 1:3 or 1:4 ratio for routine maintenance culture or a 1:1 ratio for immediate assay. All human ES cell lines were maintained at passage numbers less than 50 and routinely evaluated for normal karyotype and absence of mycoplasma.
Cell clusters were evenly resuspended in MEF conditioned medium supplemented with 8 ng/ml bFGF and seeded onto reduced growth factor […]™-coated 96-well Packard VIEWPLATES (PerkinElmer; Cat #6005182) in volumes of 0.1 ml/well. Daily feeding was conducted by aspirating spent culture medium from each well and replacing with an equal volume of fresh medium. Plates were maintained at 37° C., 5% CO2 throughout the duration of assay.
The assay was initiated by aspirating the culture medium from each well and adding back aliquots (100 μl) of test medium. Test conditions were performed in triplicate over a total four-day assay period, feeding on day 1 and day 3 by aspirating and replacing the medium from each well with fresh test medium. Various members of the GDF family of proteins were obtained for testing as follows: GDF-3 (PeproTech; Cat #120-22); GDF-5 (DePuy Orthopaedics, Inc., a Johnson & Johnson company); GDF-8 (R&D Systems; Cat #788-G8); GDF-10 (R&D Systems; Cat #1543-BP); GDF11 (PeproTech; Cat #120-11); GDF-15 (R&D Systems; Cat #957-GD). On the first day of assay, all wells received an aliquot (80 μl) of basal medium DMEM:F12 medium (Invitrogen; Cat #11330-032) supplemented with 0.5% fetal bovine serum (Hyclone; Cat #SH30070.03). A series of five different control or experimental test samples was created to evaluate activin A or various GDFs in combination with Wnt3a or Compound 34 or Compound 56. These test samples were added in 20 μl aliquots (5× concentrated) to appropriately matched assay wells to yield a final assay volume of 100 μl in each well at the final assay conditions indicated. In the first set of control samples, the following conditions were tested: 1) no additive (i.e. no supplementary growth factor or small molecule); 2) 100 ng/ml activin A (PeproTech; Cat #120-14) in combination with 20 ng/ml Wnt3a (R&D Systems; Cat #1324-WN/CF); 3) 20 ng/ml Wnt3a alone; 4) Compound 34 alone (2.5 μM) without any growth factor or small molecule; 5) Compound 56 alone (2.5 μM) without any growth factor or small molecule. In the second set of test samples, the following conditions were tested in combination with 100 ng/ml GDF3: 1) no additive (i.e. GDF-3 alone); 2) 20 ng/ml Wnt3a; 3) 20 ng/ml Wnt3a with Compound 34 (2.5 μM); 4) Compound 34 (2.5 μM); 5) Compound 56 (2.5 μM); and 6) 20 ng/ml Wnt3a with Compound 56 (2.5 μM). In the third set of test samples, each of the six conditions was combined with 100 ng/ml GDF-5. In the fourth set of test samples, each of the six conditions was combined with 100 ng/ml GDF-8. In the fifth set of test samples, each of the six conditions was combined with 100 ng/ml GDF-10. In the sixth set of test samples, each of the six conditions was combined with 100 ng/ml GDF-11. In the seventh set of test samples, each of the six conditions was combined with 100 ng/ml GDF-15. On the third day of assay, all wells for all test samples, received 100 ng/ml Activin A or 100 ng/ml respective GDF growth factor, without Wnt3a or Compound 34 or Compound 56, diluted into DMEM:F12 medium supplemented with 2% FBS. […]

Row | Molecule | induction of SOX17 expression compared to the Wnt3a treatment alone [1] | SOX17 expression, GDF growth factor substituting for activin A [2]
1 | TGFβ-1: TGF superfamily growth factor, R&D Systems | weak or negligible | 
2 | B1 | weak or negligible | 
3 | B2 |  | induced significant levels of SOX17 expression
4 | B3 |  | induced significant levels of SOX17 expression
5 | B4 |  | induced significant levels of SOX17 expression
